Earlier results as cited in PMC12428796.

Legend:
Conditions in all cases: No direct protein-aptamer binding assay in this paper (only cell uptake by flow cytometry/confocal in MIA PaCa-2 and L929, with anti-nucleolin blocking)
[1] = target: matrix metalloproteinase 14 (MMP14) (UniProt P50281)
[2] = target: T1, cholecystokinin B receptor (CCKBR) (UniProt P32239)
T1 sequence (P32239 whole entry, looked up): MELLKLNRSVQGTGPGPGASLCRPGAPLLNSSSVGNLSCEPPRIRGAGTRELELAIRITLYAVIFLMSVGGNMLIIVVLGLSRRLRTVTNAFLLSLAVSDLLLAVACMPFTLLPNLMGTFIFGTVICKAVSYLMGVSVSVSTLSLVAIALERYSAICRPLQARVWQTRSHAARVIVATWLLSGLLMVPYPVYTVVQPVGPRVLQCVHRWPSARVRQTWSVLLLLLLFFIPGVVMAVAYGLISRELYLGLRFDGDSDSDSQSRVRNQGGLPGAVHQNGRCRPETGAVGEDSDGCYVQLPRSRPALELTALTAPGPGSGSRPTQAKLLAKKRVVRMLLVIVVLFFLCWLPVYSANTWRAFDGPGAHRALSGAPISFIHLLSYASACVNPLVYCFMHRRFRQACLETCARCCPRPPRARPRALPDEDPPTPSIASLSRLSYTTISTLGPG

[3] = target: transferrin receptor 1 (TfR1) (UniProt P02786)
nucleolin = nucleolin (UniProt P19338)
Chain of nucleolin (P19338 whole entry): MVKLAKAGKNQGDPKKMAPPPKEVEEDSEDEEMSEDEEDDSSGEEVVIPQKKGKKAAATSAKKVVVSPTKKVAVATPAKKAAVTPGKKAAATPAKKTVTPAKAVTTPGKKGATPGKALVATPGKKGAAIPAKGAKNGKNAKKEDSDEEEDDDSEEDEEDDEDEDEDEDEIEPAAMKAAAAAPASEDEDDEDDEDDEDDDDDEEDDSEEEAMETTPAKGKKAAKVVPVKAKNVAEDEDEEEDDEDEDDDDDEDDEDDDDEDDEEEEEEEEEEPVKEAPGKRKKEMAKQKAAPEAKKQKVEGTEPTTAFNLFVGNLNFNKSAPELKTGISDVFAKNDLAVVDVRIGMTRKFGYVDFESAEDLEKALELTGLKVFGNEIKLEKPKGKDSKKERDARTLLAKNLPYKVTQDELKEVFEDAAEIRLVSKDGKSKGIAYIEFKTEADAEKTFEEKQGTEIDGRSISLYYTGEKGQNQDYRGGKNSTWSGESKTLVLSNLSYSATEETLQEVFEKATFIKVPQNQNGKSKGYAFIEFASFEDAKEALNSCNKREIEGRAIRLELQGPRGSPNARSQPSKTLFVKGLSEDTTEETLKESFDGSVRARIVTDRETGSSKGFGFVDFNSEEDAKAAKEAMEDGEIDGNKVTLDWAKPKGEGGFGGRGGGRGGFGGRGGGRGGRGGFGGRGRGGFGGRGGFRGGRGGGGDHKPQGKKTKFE

Chain of transferrin receptor 1 (TfR1) (P02786 whole entry): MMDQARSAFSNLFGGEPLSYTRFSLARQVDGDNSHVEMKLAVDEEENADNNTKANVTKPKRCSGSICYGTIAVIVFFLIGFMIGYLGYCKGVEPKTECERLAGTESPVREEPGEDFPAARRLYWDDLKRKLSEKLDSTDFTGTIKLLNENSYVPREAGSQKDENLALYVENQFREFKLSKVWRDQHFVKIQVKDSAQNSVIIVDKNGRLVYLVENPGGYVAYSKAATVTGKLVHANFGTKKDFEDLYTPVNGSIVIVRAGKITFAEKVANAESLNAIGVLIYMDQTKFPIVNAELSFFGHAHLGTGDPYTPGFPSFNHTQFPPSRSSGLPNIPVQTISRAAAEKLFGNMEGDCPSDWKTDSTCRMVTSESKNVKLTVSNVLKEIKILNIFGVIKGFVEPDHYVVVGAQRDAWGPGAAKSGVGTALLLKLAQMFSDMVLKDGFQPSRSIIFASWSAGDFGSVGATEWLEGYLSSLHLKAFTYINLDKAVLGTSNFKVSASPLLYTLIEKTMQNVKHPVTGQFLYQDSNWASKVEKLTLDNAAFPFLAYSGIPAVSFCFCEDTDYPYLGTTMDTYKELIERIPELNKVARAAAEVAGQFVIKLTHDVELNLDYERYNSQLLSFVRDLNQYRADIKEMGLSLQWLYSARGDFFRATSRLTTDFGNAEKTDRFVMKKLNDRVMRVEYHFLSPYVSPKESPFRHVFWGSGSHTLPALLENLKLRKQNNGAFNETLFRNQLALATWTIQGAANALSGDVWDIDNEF

AGGGCCCGACGTGACGGCACGTCGGATATCTCATGCGTGT [M17]
Kd [1]: 4.98 nM

CATGGTGCAGGTGTGGCTGGGATTCATTTGCCGGTGCTGGTGCGTCCGCGGCCGCTAATCCTGTTC [AP1153]
Kd [2]: 0.206 nM

ACTCATAGGGTTAGGGGCTGCTGGCCAGATACTCAGATGGTAGGGTTACTATGAGC [XQ-2D]
Kd [3]: 55 nM

GGTGGTGGTGGTGTTGGTGGTGGTGG [AS1411]
Kd (nucleolin): 16.4 nM
